Test system: MS2 coat protein
Assay: apparent KD of MS2 coat protein; designed switch direction (-1 OFF switch, 1 ON switch): -1; higher = weaker reporter binding
Outline: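 Apparent KD, taken as the median over clusters for each design, was obtained by curve-fitting normalised cluster fluorescence. Designed RNA switches had been transcribed on Illumina chips by stalled E. coli RNA polymerase and titrated with SNAP-549-labelled MS2 coat protein, doubling from 0.7 or 1.5 nM to 3 µM.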

[1] = Eterna round: R95, input ligand: microRNA oligo, concentration not stated
[2] = Eterna round: R95, input ligand: FMN 200 uM
[3] = Eterna round: R95, input ligand: none
[4] = input ligand: microRNA oligo, concentration not stated

Row | Sequence | apparent KD of MS2 coat protein [1] [nM] | apparent KD of MS2 coat protein [2] [nM] | apparent KD of MS2 coat protein [3] [nM] | apparent KD of MS2 coat protein (input ligand: FMN 200 uM) [nM] | apparent KD of MS2 coat protein (input ligand: none) [nM] | apparent KD of MS2 coat protein [4] [nM]
1 | AAUAACAGAGGAUAUACUAUUUUAUGUAUUUAUUAUUUUGAACAUGAGGAUCACCCAUGUAGAAGGCUGAUUAA [JMF 47] (puzzle: Exclusion 2) | 28.7 | – | – | – | – | –
2 | UUUUAACAUGAGGAUCACCCAUGUGAGGAUAUCGAAAUUUAUAUUAAUAUUAUUUAUUCGAGAAGGCACAUUUU [JMF 45] (puzzle: Exclusion 1) | 118 | – | – | – | – | –
3 | CAGCCUUGAGUUAGGAUAUGCGAUCGUGUAGACGAGCAGAAGGGACAUGAGGAUCACCCAUGUGAAAUAAUUAA [Begeti] (puzzle: Brourd's mod of Exclusion 4) | 13.2 | 18.3 | 13.4 | – | – | –
4 | AAAUCUCACGUAAGGAUAUCCUGGGCAACGUCCACGGAGAAGGUACAUGAGGAUCACCCAUGUGCUCGCUAUAC [BmEX4 C.1] (Eterna round: R97, puzzle: Brourd's mod of Exclusion 4) | – | – | – | 25.2 | 19.7 | –
5 | AAUAACAAGUAGAUCCUAAACAUGAGGAUCACCCAUGUGCUCGUCUUGUAAAGUACUAUCACGAAAGUGAUAGUACA [Sensor 3, v1 - 58] (puzzle: Sensor v3, turn-off variant 1) | 360 | 67 | 115 | – | – | –
6 | ACGCUGUGAGGAUAUACAUGAGGAUCACCCAUGUUAAGGAAGUCUUGGUUAAUUUGGAGUAGAAGGCGCUUAUU [JR_Ex3_Sub016] (Eterna round: R97, puzzle: Exclusion 3) | – | – | – | 31.5 | 34.9 | –
7 | CUGUGCAUAGGAUAUGAAAGAAGAAACAUGAGGAUCACCCAUGUAGCCUCAAAUCUUAUGUCAGAAGGAUGCGUUA [Default title] (Eterna round: R97, puzzle: Exclusion 5) | – | – | – | 15.9 | 13.6 | –
8 | UUGUAACAUGAGGAUCACCCAUGUGAGGAUAUGGUUAAGUAAUGUAAUGUAAAGUAAUCCAGAAGGCACAUGUU [1st #24] (Eterna round: R97, puzzle: Exclusion 1) | – | – | – | 488 | 328 | –
9 | CGAUAUAACGUAGGAUAUCUGAGAAAUAGAUGAAGAGAAGGACGACAUGAGGAUCACCCAUGUGAUCUAUCAAUAUUAUACAUG [Prohibition 96 - Jieux - Exclusion NG 1] (Eterna round: R96, puzzle: Exclusion NG 1) | – | – | – | 722 | 604 | 694
10 | GGAUCGAAUGUGAGGAUAUGCUGGUCCUUGGAUCAGCAGAAGGCACAUGAGGAUCACCCAUGUGAAGACGGUCC [Eli bmx4 4.31] (Eterna round: R97, puzzle: Brourd's mod of Exclusion 4) | – | – | – | 201 | 41.4 | –
11 | CGUACUGAAGUGAGGAUAUUGUCUCGGAUACGAAACAAGAAGGCACAUGAGGAUCACCCAUGUUAACAGUACGA [Malc #30 mod 9] (puzzle: Brourd's mod of Exclusion 4) | 19.2 | 15.2 | 14.5 | – | – | –
12 | CUUUUGUGAGGAUAUCAGUAGUAUAAAAUAAAAUAUACUACUGAGAAGGCACAUGAGGAUCACCCAUGUUCCUC [Mat - Exclusion 4 - Mod of Salish - D71] (puzzle: Exclusion 4) | 38.5 | – | – | – | – | –
13 | AAAAAGGGAGGAUAUACAUGAGGAUCACCCAUGUAGCAGACGAAAAAGAGUCUGUAAUGUAGAAGGCCCAAAAA [65%, Moding Exclusion3-cac2, 4] (Eterna round: R96, puzzle: Exclusion 3) | – | – | – | 50.9 | 17.5 | 13.1
14 | GAGUGACAUGAGGAUCACCCAUGUGAGGAUAUCCGAUGGACCAAAUUAACAAUAGAAGGGAGAAGGCACAUAAA [Exclusion 1 V7] (puzzle: Exclusion 1) | 127 | 162 | 131 | – | – | –
15 | UUUUUAUAUGAAGGAUAUACUUAACAUGAGGAUCACCCAUGUGGUGUUGUGAGUGAGUGAGUUUAGUAGAAGGUCAAUGAUUAU [JMF's solution 59] (Eterna round: R96, puzzle: Exclusion NG 2) | – | – | – | 991 | 321 | 205
16 | CCGCUCCGUGUAGGAUAUUGGCGUGCCCUGCGCCGAGAAGGACAUGAGGAUCACCCAUGUAUGUUAUUAUCACGCGUGGCGCAC [Design 76] (Eterna round: R96, puzzle: Exclusion NG 1) | – | – | – | 15.9 | 17 | 12.9
17 | ACAUGAGGAUCACCCAUGUGGACGAAAAGGCUCAUGUAGAGUGAGGAUAUGUGAGACGAACGAGAACAGAAGGCACAAGACAGG [Deportation 5 - Jieux - Exclusion NG 3] (Eterna round: R96, puzzle: Exclusion NG 3) | – | – | – | 17.4 | 20 | 22.3
18 | AGUAACCGUCACGAAAGUGAUGGUUACGCAAGCAAAUGUACAUGAGGAUCACCCAUGUCCUCAAUUGCUCGUCUUAU [Sensor 3 - 51] (puzzle: Sensor v3, turn-off variant 2) | 175 | 102 | 114 | – | – | –
19 | AAAAUACAUGAGGAUCACCCAUGUCAGGAUAUGCUAAAAAAAAAAUUAAAAAAAAAAUGUAGAAGGGACUAAAA [Exclusion Z2] (Eterna round: R96, puzzle: Exclusion 1) | – | – | – | – | – | 71.6
20 | AAUGAUUGACGAGGAUAUUGUGUUAGAUCACGACGAGAAGGCGUCUGUCACAUGAGGAUCACCCAUGUGAGCCUGGUGGAUAGA [Ex NG1 #78] (Eterna round: R96, puzzle: Exclusion NG 1) | – | – | – | 82.6 | 50 | 35.1
21 | GCACGGUAAGUGAGGAUAUACCUCUGGAUACAGAGGUAGAAGGCACAUGAGGAUCACCCAUGUUCAAGCCGUGC [Fiskers BMX 4 - 85] (puzzle: Brourd's mod of Exclusion 4) | 13.2 | 14.5 | 14.4 | – | – | –
22 | UUUUAGAGAGGAUAUAUAAAGUGAAACAUGAGGAUCACCCAUGUAAUUUUAUGGAUGUAAAUAGAAGGCUCAUUUU [Mat - Exclusion 5 - JL mod - D2] (puzzle: Exclusion 5) | 34.2 | 27.8 | 34.7 | – | – | –
23 | UGUGCGUCAGGAUAUUCUAUUUAUUACAUGAGGAUCACCCAUGUGAAUGUACAAGGGUGUGAAGAAGGGACUUGUG [LRO-Excl5-03-mod A17d by Omei] (Eterna round: R97, puzzle: Exclusion 5) | – | – | – | 808 | 1090 | –
24 | GAUCCUUUGACGGACGUCUCGAAACAUGAGGAUCACCCAUGUGAGGAUAUCUCCGAGAGGUCGGCAGAGAAGGCACAUGAACAA [MOD3 Eternabot solution 19 score 84.66] (Eterna round: R96, puzzle: Exclusion NG 3) | – | – | – | 123 | 19.8 | 16.5
25 | AUUGAUGUUGAGGAUAUGCUUUUAUUUAUAAUAGCAGAAGGCGAUACAUGAGGAUCACCCAUGUUCAUGGUAGU [JR_E6_Sub095] (puzzle: Exclusion 6) | 50.4 | – | – | – | – | –
